target: T1, recombinant EGFRviii protein (UniProt P00533 25-645); assay: flow cytometry; CAR-T cells stained with recombinant EGFRviii protein
T1 construct: EGFRviii is a deletion variant of it; The construct is not described
From the text: CytoFLEX S (manufactured by Beckman Coulter, Inc.) was used as the flow cytometer, and FlowJo software (manufactured by Tree Star, Inc.) was used for data analysis.

flow cytometer measurement result (percent of cells stained with recombinant EGFRviii protein) [%] | Binder
32.4 | third generation anti-EGFRviiiCAR with scFv S#026 VL25VH (SG) of the 1B10-1A12 clone, on PRIME EGFRviii CAR-T cells (other, also called PRIME EGFRviii CAR-T cells based on the 1B10-1A12 clone; not shown: rest of the third generation CAR: human CD8 transmembrane region and human CD28-4-1BB-CD3zeta intracellular signal trans) DVVMTQTPLSLPVSLEDQASISCRSSQSLVHSSGKTYLQWYLQKPGQSPKLLIYSVSNRFSGVPDRFSGSGSGRDFTLKISRVEAEDLGVYFCSQSTHVPWTFGGGTKLEIKSSADDAKKDAAKKDDAKKDDAKKDGQVTLKESGPGILQPSQTLSLTCSFSGFSLSTSGMGVSWIRQPSGKGLEWLAHIFWDDDKRYNPSLKSRLTISKDTSTNQVFLKITSVDTADTATYYCARNYGFDVWGAGTTVTVSS
3.6 | anti-EGFRviiiCAR with VL25VH (SG) type scFv based on the 2H9-1B5 clone, on PRIME EGFRviii CAR-T cells (other, also called PRIME EGFRviii CAR-T cells based on the 2H9-1B5 clone; not shown: rest of the CAR, produced 'in a manner similar to that based on the 1B10-1A12 clone' (third generation: CD8 transmembran)) DVVVTQTPLSLPVSLEDQASISCRSSRSLVHSSGKTYLQWYLQKPGQSPKLLIYSVSNRFSGVPDRFSGSGSGRDFTLKINRVEAEDLGVYFCSQSTHVPWTFGGGTKLEIKSSADDAKKDAAKKDDAKKDDAKKDGQVTLKESGPGILQPSQTLSLTCSLSGFSLSTSGMGVSWIRQPSGKGLEWLAHIYWDDDTRYNPSLKRRLTISKDTSTNQVFLKITSVDTADTATYYCARNYGFDVWGAGTTVTVSS
1.4 | anti-EGFRviiiCAR with VL25VH (SG) type scFv based on the 3C2-1B10 clone, on PRIME EGFRviii CAR-T cells (other, also called PRIME EGFRviii CAR-T cells based on the 3C2-1B10 clone; not shown: rest of the CAR, produced 'in a manner similar to that based on the 1B10-1A12 clone' (third generation: CD8 transmembran)) DVVVTQTPLSLPVSLGDQASISCRSSQSLVHSSGITYLQWYLQKPGQSPKLLIYKVSTRFSGVPDRFSGSGSGTDFTLRISRVEAEELGVYFCSQSTHIPWTFGGGTKLEIKSSADDAKKDAAKKDDAKKDDAKKDGQVTLKESGPGILQPSQTLSLACSFSGFSLSTSGMGVSWIRQPSGKGLEWLAHIYWDDDRRYNPSLKSRLTISRDTSSNQVFLRITSVDTADTATYYCARNYGFDVWGAGTTVTVSS
